Experimental data as given in patent US11604185B2 (priority 2007, dated 2023).
Where no end group is shown, it is not given here. [ ]: non-standard residue; d: D form. The star is where a group is joined. 5FAM = O=C1OC2(c3ccc(O)cc3Oc3cc(O)ccc32)c2ccc(C(=O)*)cc21; Dabcyl = CN(C)c1ccc(N=Nc2ccc(C(=O)*)cc2)cc1; Nle = CCCC[C@H](N)C(=O)O

How the values were obtained:
Trypsin [1] = molecular target: T1, Trypsin (Sus scrofa, UniProt P00761); format: biochemical
BoNT/A complex [2] = molecular target: T2, BoNT/A complex (Clostridium botulinum, UniProt P0DPI1)
[3] = system: BoNT/A holotoxin, complex or the non-toxic LCs; format: biochemical, Clostridium botulinum
Trypsin [4] = molecular target: T1, Trypsin; format: biochemical; remark: listed apart in the source
Proteinase K = Proteinase K (Parengyodontium album, UniProt P06873); format: biochemical
BoNT/A subtypes A1 to A5 = format: biochemical, Clostridium botulinum
BoNT/A complex [5] = molecular target: T2, BoNT/A complex; format: biochemical
Thermolysin = Thermolysin (Bacillus thermoproteolyticus, UniProt P00800)
BoNT/B = BoNT/B (Clostridium botulinum, UniProt P10844)
BoNT/A light chain = BoNT/A light chain (Clostridium botulinum, UniProt P0DPI0)
BoNT/A light chain, sequence (P0DPI0 2-448 limits assumed): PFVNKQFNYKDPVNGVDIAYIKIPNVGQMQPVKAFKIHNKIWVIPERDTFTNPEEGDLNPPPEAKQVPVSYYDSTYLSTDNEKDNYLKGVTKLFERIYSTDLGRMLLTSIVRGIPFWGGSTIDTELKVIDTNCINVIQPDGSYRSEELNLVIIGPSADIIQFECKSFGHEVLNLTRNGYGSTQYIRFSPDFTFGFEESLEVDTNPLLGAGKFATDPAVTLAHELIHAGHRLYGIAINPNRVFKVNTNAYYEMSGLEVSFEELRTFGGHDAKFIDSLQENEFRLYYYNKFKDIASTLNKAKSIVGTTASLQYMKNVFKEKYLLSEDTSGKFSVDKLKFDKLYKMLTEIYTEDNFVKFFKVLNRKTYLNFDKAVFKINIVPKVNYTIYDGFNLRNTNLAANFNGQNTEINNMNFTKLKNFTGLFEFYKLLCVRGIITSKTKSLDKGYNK

Compound: [5-Fam]TRIDEANQRATK[DABCYL] (5FAM-TRIDEANQRATK; not fully specified (residue 12); also: DABCYL label at C-terminal K, side chain or terminus not clear) [#110]
- cleavage by trypsin (Trypsin [1]): cleaved by trypsin
- cleavage by BoNT/A complex (BoNT/A complex [2]): not by BoNT/A complex

Compound: Fam-K[5-Fam]IDEANQRATK[DABCYL]Nle-amide [SEQ ID NO: 13]
- cleavable by BoNT/A holotoxin, complex or non-toxic LCs alone [3]: can be cleaved

Compound: [5-Fam]TRIDEANQRATK[DABCYL]-Hex (5FAM-TRIDEANQRATK; not fully specified (residue 12, C-terminus); also: DABCYL label and hexyl (-Hex) at C-terminal K, placement not clear) [#112]
- Km (Trypsin [4]): 3.75 ± 0.79 µM
- kcat (Trypsin [4]): 58.72 ± 4.17 s⁻¹
- Km (Proteinase K): 3.37 ± 0.67 µM
- kcat (Proteinase K): 50.73 ± 3.28 s⁻¹
- cleavage by trypsin (Trypsin [1]): cleaved by trypsin
- cleaved by BoNT/A subtypes (recombinant LCs) (BoNT/A subtypes A1 to A5): None
- cleavage upon addition of increasing concentrations of BoNT/A complex (BoNT/A complex [5]): only little cleavage
- Km (Thermolysin): 3.58 ± 0.76 µM
- kcat (Thermolysin): 24.26 ± 1.72 s⁻¹
- cleavage by BoNT/A complex (BoNT/A complex [2]): not by BoNT/A complex
- cleavage by BoNT/A serotype (BoNT/A complex [2]): not cleaved
- cleavage by BoNT/B serotype (BoNT/B): not cleaved

Compound: [4-Mu]TRIDEANQRATK[DABCYL] ({4‑Mu}-TRIDEANQRATK; not fully specified (residue 12); also: DABCYL label at C-terminal K, side chain or terminus not clear) [#111]
- cleavage by trypsin (Trypsin [1]): cleaved by trypsin
- cleavage by BoNT/A complex (BoNT/A complex [2]): not by BoNT/A complex

Compound: 5FAM-KIDEANQRATK(Dabcyl)[Nle]-NH2 [SEQ ID NO: 14]
- cleavable by BoNT/A holotoxin, complex or non-toxic LCs alone [3]: can be cleaved

Compound: [4-Mu]TRIDEANQRATK[DABCYL]-Hex ({4‑Mu}-TRIDEANQRATK; not fully specified (residue 12, C-terminus); also: DABCYL label and hexyl (-Hex) at C-terminal K, placement not clear) [#113]
- Km (Trypsin [4]): 13.3 ± 2.7 µM
- kcat (Trypsin [4]): 83.90 ± 8.35 s⁻¹
- Km (Proteinase K): 4.87 ± 0.96 µM
- kcat (Proteinase K): 30.64 ± 2.17 s⁻¹
- cleavage by trypsin (Trypsin [1]): cleaved by trypsin
- cleaved by BoNT/A subtypes (recombinant LCs) (BoNT/A subtypes A1 to A5): None
- Km (Thermolysin): 6.45 ± 0.8 µM
- kcat (Thermolysin): 14.66 ± 0.71 s⁻¹
- cleavage by BoNT/A complex (BoNT/A complex [2]): not by BoNT/A complex

Compound: K[5FAM]-IDEANQRATK[DABCYL]-Hex-CONH2 [#204]
- cleavage in microcolumn ALISSA (BoNT/A light chain): does not cleave the control peptide

Compound: K(5FAM)IDEANQRATK(Dabcyl)[Nle]-NH2 [#201]
- cleavable by BoNT/A holotoxin, complex or non-toxic LCs alone [3]: can be cleaved

Compound: c1ccc(CN(CCN(Cc2ccccn2)Cc2ccccn2)Cc2ccccn2)nc1 [TPEN, N,N,N′,N′-Tetrakis (2-pyridylmethyl) ethylenediamine, reference compound]
- effect on BoNT metalloprotease activity (BoNT/A complex [5]): suppressed BoNT metalloprotease activity
